Results reported in paper PMC11266487.

Target: angiotensin converting enzyme 2 (ACE2) (human (endogenous in BCi.NS1.1)) (UniProt Q9BYF1)
Chain of UniProt Q9BYF1 (Q9BYF1 18-805): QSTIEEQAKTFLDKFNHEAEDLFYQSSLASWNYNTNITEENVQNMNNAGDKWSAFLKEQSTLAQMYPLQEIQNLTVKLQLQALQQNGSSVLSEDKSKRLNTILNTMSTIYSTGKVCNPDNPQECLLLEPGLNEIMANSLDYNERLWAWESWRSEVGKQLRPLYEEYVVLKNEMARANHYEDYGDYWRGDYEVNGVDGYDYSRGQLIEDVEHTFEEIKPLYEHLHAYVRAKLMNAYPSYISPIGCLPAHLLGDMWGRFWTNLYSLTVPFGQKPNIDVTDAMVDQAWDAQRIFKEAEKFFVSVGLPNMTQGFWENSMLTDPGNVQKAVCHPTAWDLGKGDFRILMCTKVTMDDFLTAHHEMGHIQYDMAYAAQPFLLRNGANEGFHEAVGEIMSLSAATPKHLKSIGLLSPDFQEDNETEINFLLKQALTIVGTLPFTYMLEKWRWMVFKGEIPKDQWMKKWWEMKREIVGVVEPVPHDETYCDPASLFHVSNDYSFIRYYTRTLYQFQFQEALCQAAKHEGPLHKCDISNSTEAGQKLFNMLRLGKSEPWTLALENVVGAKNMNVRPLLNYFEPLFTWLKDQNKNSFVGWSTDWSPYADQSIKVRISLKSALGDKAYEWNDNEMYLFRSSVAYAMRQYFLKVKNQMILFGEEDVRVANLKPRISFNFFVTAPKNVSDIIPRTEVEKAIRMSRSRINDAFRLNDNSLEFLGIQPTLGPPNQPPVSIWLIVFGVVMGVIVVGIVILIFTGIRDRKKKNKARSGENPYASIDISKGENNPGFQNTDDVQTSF

| Substance | Ki for reduction of cAMP-activated CFTR chloride channel activity (Ussing chamber, differentiated BCi.NS1.1 epithelia) [µg/mL] |
| --- | --- |
| β-1.351 [S1S2] spike protein (natural protein) | 0.21 |
| Wuhan-Hu-1 [S1S2] spike protein (natural protein) | 0.446 |
